Results: patent CN108727489A (GUANGZHOU 8TH PEOPLES HOSPITAL; UNIV TSINGHUA, dated 2018)

Experiments:
E-His 6 融合蛋白 = target: T1, E-His 6 融合蛋白 (Zika virus, UniProt A0A024B7W1 292-693); experiment: ELISA screen of memory B cell culture supernatants on coated E-His6 fusion protein
T1 construct: Expressed in 293T cells, purified on a Ni column and by gel filtration; Used as the ELISA coating antigen; also called E-His6 fusion protein; 寨卡病毒的E蛋白

[1] = target: 寨卡病毒GZ01株的E蛋白 (on virus particles) (Zika virus GZ01 strain); experiment: cell-based or functional assay

T1 sequence (A0A024B7W1 292-693, tags left off): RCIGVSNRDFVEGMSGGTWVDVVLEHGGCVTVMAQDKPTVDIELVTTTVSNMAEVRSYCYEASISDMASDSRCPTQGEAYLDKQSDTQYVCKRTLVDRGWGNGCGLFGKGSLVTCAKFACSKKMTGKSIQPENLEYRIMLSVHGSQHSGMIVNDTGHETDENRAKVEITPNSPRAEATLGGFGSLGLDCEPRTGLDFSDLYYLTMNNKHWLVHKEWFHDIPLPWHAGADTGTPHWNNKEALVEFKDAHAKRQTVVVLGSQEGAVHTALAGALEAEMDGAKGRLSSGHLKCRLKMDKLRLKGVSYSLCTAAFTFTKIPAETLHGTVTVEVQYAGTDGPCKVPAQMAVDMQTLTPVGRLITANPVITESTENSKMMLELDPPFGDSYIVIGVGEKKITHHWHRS

B1: ZK2C2 (antibody, human IgG1, lambda, V domains shown)
VH: EVQLLESGGGVVQPGRSLRLSCAGSGFTFSSYGMHWVRQAPGKGLEWVAVISYDGSNKYYVDSVKGRFTISRDNSRNTLYLQMNNLKAEDTAVYYCAKGHLIDWGQGTLVTVSS
VL: QLVLTQPPSASGTPGQRVTISCSGSSSNIGRNIVNWYQQFPGTTPKLLIYGTNQRPSGVPDRFSGSKSGTSASLAISGLQSEDETNYYCAAWDDSLNGWLFGGGTKLTVLG
notes: also called 单克隆抗体ZK2C2; ZK2C2抗体
B1 was tested, and the binding result (E-His 6 融合蛋白) was “binds” and the “中和百分比为50%时的抗体浓度 (IC50), plaque reduction on Vero cells” value [1] was 3.8 µg/mL.
